Target: recombinant full-length HSP70 in fusion with N-terminal maltose binding protein (MBP) (UniProt P0DMV8 1-641)
Assay: SPR

recombinant full-length HSP70 in fusion with N-terminal maltose binding protein (MBP), sequence (P0DMV8 whole entry, the tested form may be a part): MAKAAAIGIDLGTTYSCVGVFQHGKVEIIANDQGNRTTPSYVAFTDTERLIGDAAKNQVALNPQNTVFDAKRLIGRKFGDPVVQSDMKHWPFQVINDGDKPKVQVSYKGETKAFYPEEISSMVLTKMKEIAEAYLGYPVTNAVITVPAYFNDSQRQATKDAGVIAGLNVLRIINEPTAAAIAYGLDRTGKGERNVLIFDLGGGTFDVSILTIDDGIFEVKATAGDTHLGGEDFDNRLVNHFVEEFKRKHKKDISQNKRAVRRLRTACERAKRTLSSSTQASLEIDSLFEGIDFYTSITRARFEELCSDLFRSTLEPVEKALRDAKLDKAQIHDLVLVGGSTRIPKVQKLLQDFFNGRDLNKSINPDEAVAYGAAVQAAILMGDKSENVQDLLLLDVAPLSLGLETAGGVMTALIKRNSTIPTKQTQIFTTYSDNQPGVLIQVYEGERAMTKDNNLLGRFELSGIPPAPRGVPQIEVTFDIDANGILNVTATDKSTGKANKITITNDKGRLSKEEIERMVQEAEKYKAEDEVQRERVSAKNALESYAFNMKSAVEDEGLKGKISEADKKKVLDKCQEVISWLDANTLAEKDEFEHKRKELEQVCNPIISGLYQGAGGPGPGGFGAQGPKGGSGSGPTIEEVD

B1: NS5A domain I (domain or fragment)
chain: SGSWLRDIWDWICEVLSDFKTWLKAKLMPQLPGIPFVSCQRGYRGVWRGDGIMHTRCHCGAEITGHVKNGTMRIVGPRTCKNMWSGTFFINAYTTGPCTPLPAPNYKFALWRVSAEEYVEIRRVGDFHYVSGMTTDNLKCPCQIPSPEFFTELDGVRLHRFAPPCKPLLREEVSFRVGLHEYPVGSQLPCEPEPDVAVLTSMLTDPSHITAEA
Work on B1 yielded a Kd of 316 nM.

— article PMC4284078 (Virology, 2014)
